Results reported in the nanobody polyreactivity screen of Harvey et al. (2022).

Experiment: yeast display, Sf9 membrane polyspecificity reagent, FACS + sequencing; frameworks hold sequencing errors
Outline: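 Using colony PCR, genes from sorted yeast display clones were amplified, then sequenced on MiSeq at 2 × 250 and filtered by CDR length. The clones had been stained with 10% biotinylated, detergent-solubilized Sf9 membrane reagent for 1 hour at 4 °C and sorted by FACS into low and high (top ~1%) gates on anti-HA and streptavidin fluorescence. Polyreactivity labels come from the gate of origin.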

Sequence | polyreactivity (PSR sort gate)
QVQLVESGGGLVQAGGSLRLSCAASGRTFKRNGMGWYRQAPGKERELVAAIRNTGSTKYADSVKGRFTISRDNAKNTVYLQMNSLKPEDTAVYYCNARVYEAQTYYYWGQGTQVTVSS | high polyreactivity
QVQLVESGGGLVQAGGSLRLSCAASGSMFSHYTMGWYRQAPGQERELVAAITNGGITNYADAVKGRFTISRDNAKNTVYLQMNSLKPEDTAVYYCAADWWYGYSNYDYWGQGTQVTVSS | low polyreactivity
QVQLVESGGGLVQAGGSLRLSCAASGRIIRINAMGSYRPAPGKERELVAAITRGGTTYADSVKGRFTISRDNAKNTVYLQMTSLIPEDTSVYNCNARTGRSPSGFRYWGQGTQVTVSS | high polyreactivity
QVQLVESGGGLVQAGGSLRLSCAASGRIFTTNTMGWYRQAPGKERELVARITYSGTSTYYADSVKGRFTISRDNAKNTVYLQMNSLKPEDTAVYYCAAKVWWRKYLLQDYYYWGQGTQVTVSS | high polyreactivity
QVQLVESGGGLVQAGGSLRLSCAASGRTLRQYAMGWYRQAPGKERELVAAISRGGSTTYADSVKGRFTISRDNAKNTVYIQMNSLKPEDTAVYYCAAVSSKGNRHEYDYWGQGTQVTVSS | low polyreactivity
QVQLVESGGGLVHAGGSLRLSCAASGSNFNINAMGWYRQAPGKERELVAAITTSGGRTYYSDSVKGRFTISRDNAKNTVYLQMNSLKPEDTAVYYCNARHLPGSRSWRWITYDYWGQGTQVTVSS | low polyreactivity
QVQLVESGGGLVQAGGSLRLSCAASGSTFSNNAMGWYRQAPGKERELVAAITRRGTSTYYADSVKGRFTISRDNAKNTVYLQMISLKPEDTAVYYCAAVYKLRHKRPSYGSWGQGTQVTVSS | high polyreactivity
QVQLVESGGGVVQAGGSLRLSCAASGSTFLPYAMGWYRQAPGKERELVAAITWRTGSTYYADSVKGRFTSSRDNAQNTVYLQMNSLKPEDTAVYYCNAKQRGKFDYWGQGTQVTVSS | low polyreactivity
QLQLVESGGGLVQAGGSLRLSCAASGSTLSDNAMGWYRQAPAKERELVASISWSGGTYYADSVKGRFTISRDNANNTVYLQMNSLKPEDTAVYYCAAYIYYNYSRQYWYDYWGQGTQVTVSS | low polyreactivity
QVQLVESGGGLVQAGGSLRLSCAASGSTFYINAMGWYRQAPGKERELVADITVRGGNTYYADSVKGRFTISRDNAKNTVYLQMNSLKPEDTAVYYCNALLSGGRAGFDYWGQVTQVTVSS | high polyreactivity
QVQLVESGGGLVQAGGSLRLSCAASGRIFYLNVMGWYRQAPGKERELVAAITRRDVTTYADSVKGRFTISRDNAKNTVYLQMNSLKPEDTAVYYCNAVYYNRIGFDYWGQVTQVTVSS | low polyreactivity
QVQLVESGGGLVQAGGSLRLICAASGNIFTYYAMGWYRQAPWKERELVAAISSGDSTNYADSVKGRFTISRDNAKNTVYLQMNSLKPEDTAVYYCNVDRVPSRRYYAQKGYFRYYYWGQGTQVTVSS | high polyreactivity
QVQLVESGGGLVQAGGSLRLSCAASGSIFSLYAMGCYIQAHGKERELVAAISRGGSTNYADSVKGRFTISRDNAKNTVYLQMNSLKPEDTAVDYCNAGFGVRRKHITFYTWYDYWGQGTQVTVSS | low polyreactivity
QVQLQESGGGLAQAGGSLRLSCAASGTIFPADSMGWYRQAPGKERELVAGITTGANTYYADSVKGRFTISHDNAKNTVYLQMDSLIPEDIALYYCAAPGSSTYDLEYWGQGTQVTVSS | high polyreactivity
QVQLVESGGGLVQAGGSLRLSCAASGITFDGYAMGWYRQAPGKETELVAANSWSGGRTYYADSVKGRFTISRDNAKNTVYLQMNSLKPEDTAVYYCGVYRRGVVYLLTSGVDYWGQGTQVTVSS | high polyreactivity
QVQLVESGGGLVQAGGSLRLSCAASGFTFIRYAMGWYRQAPGKERELVATISRSGGRTYYADSVKGRFTISRDNAKNTVYLQMNSLKPEDTAVYYCNAEAIVLNGGGYWGQGTQVTVSS | high polyreactivity
QVQLVESGGGLVQAGGSLRLSCAASGFICDYNAMGWYRQAPGKERELVAAISGGGGSTYYADSVKGRFTISRDNAKKTVYLQMNSLKPEDTAVYYCAKRYRGGYWGQGTQVTVSS | high polyreactivity
